Molecular target: T1, SH2-containing inositol-5-phosphatase (SHIP), mouse, endogenous protein in NK cell lysates (mouse, UniProt Q9ES52 1-1191, limits assumed)
T1 construct: Endogenous protein co-immunoprecipitated from NK-enriched C57BL6/J splenocyte lysates (modified RIPA buffer) and detected by Western blot with anti-SHIP P2C6; also called SH2-containing Inositol Polyphosphatase; 135/145 kD SHIP isoforms
T1 sequence (looked up): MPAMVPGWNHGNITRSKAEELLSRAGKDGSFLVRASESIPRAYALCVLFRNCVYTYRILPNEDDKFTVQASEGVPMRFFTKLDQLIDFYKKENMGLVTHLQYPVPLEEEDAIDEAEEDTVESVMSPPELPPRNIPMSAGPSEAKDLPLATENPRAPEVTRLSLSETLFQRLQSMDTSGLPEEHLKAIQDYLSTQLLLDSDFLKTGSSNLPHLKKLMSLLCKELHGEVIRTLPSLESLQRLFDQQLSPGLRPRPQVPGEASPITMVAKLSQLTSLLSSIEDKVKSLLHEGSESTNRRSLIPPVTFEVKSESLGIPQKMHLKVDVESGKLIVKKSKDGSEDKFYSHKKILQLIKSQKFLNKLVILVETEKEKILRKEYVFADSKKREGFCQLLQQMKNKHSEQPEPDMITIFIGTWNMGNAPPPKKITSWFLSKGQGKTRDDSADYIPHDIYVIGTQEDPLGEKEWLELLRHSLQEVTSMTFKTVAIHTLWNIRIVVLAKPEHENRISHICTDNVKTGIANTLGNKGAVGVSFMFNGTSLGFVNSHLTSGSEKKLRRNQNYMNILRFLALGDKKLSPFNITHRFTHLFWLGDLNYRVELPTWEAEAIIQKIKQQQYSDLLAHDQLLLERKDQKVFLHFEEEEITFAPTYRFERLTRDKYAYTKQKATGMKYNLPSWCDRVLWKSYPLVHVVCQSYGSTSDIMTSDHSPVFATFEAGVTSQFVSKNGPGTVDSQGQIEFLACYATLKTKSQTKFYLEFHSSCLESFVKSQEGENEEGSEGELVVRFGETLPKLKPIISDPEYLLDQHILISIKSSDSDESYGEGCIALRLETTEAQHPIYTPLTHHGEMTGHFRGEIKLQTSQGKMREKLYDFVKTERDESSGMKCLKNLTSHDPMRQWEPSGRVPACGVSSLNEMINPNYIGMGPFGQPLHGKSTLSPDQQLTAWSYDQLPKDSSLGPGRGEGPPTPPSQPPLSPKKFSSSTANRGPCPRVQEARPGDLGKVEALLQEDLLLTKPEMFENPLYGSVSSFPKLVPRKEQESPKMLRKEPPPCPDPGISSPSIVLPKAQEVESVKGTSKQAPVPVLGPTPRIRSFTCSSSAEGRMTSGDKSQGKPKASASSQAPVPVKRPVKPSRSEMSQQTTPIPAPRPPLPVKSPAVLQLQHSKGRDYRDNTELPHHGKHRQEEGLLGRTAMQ
Test: co-immunoprecipitation from NK-enriched splenocyte lysates, Western blot with anti-SHIP P2C6
Description: Equal quantities of protein from cells lysates prepared from SHIP^{+/+} and SHIP^{-/-} NK cells are resolved on a 4-12% Tris-Bis polyacrylamide gel (Invitrogen), transferred to a nitrocellulose membrane (Amersham) and the filters probed with an anti-Akt-P(Threo) antibody (Cell Signaling) at a 1:1000 dilution. […] The blot is then stripped and reprobed in a similar manner using an anti-β-actin antibody (Cell Signaling) as an internal control for protein loading.
Thus, in FIG. 5, SHIP is shown to be recruited to NK inhibitory receptors and to oppose Akt activation in vivo. […] A mock immunoprecipitation of the NK lysates with an IgG2a antibody is analyzed in parallel as a negative control. The results of these immunoprecipitations are representative of two independent analyses of NK-enriched splenocytes. […] Immunoprecipitation of SHIP from NK cell lysates serves as positive control in both (A) and (B). In (A) a one-tenth exposure of the SHIP lane enables the 135/145 kD SHIP isoforms to be distinguished clearly. […] To control for the amount of cell lysate loaded in each sample, the Akt-P blot is stripped and re-probed with an antibody specific for β-actin, GAPDH, and cc tubulin. […] Immunoprecipitation with a murine IgG2a antibody (IgG2a) is analyzed as a negative control and SHIP is immunoprecipitated as a positive control. […]

binding result: no binding
B1: Ly49G2, mouse NK inhibitory receptor (receptor, UniProt Q60654-2 1-267, looked up)
chain: MSEQEVTYSTVRFHESSRLQKLVRTEEPQRPREACYREYSVPWKLIVIACGILCFLLLVTVALLAITIFQHSQQKHELQETLNCHDNCSPTQSDVNLKDELLRNKSIECRPGNDLLESLSRDQNRWYSETKTFSDSSQHTGRGFEKYWFCYGIKCYYFNMDRKTWSGCKQTCQISSLSLLKIDNEDELKFLQNLAPSDISWIGLSYDNKKKDWVWIDNGPSKLALNTTKYNIRDGLCMSLSKTRLDNGDCDKSYICICGKRLDKFPH
notes: Immunoprecipitated with anti-Ly49G2 (4D11)
